In patent US20240398949A1 (OSLO UNIVERSITETSSYKEHUS HF, published 2024):

Legend:
[1] = target: T1, peptide 33 (FIGURE 3 d/e); test: peptide array on cellulose membrane, double-alanine substitution series, signal intensity (area under curve), duplicate spots
T1 construct: marked KF under the bar
T1 peptide: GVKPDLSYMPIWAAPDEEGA

[2] = target: T2, peptide 30 (FIGURE 3 d/e); test: as above
T2 construct: marked PI under the bar
T2 peptide: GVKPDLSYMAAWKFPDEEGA

[3] = target: T3, peptide 21 (FIGURE 3 d/e); test: as above
T3 peptide: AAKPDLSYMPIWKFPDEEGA

[4] = target: T4, peptide 38 (FIGURE 3 d/e); test: as above
T4 peptide: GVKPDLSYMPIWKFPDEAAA

[5] = target: T5, peptide 28 (FIGURE 3 d/e); test: as above
T5 peptide: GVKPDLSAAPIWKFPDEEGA

[6] = target: T6, peptide 34 (FIGURE 3 d/e); test: as above
T6 construct: marked FP under the bar
T6 peptide: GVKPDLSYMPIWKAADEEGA

[7] = target: T7, peptide 24 (FIGURE 3 d/e); test: as above
T7 peptide: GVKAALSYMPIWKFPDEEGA

[8] = target: T8, peptide 29 (FIGURE 3 d/e); test: as above
T8 construct: marked MP under the bar
T8 peptide: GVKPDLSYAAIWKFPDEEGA

[9] = target: T9, peptide 27 (FIGURE 3 d/e); test: as above
T9 peptide: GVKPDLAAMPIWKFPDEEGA

[10] = target: T10, peptide 23 (FIGURE 3 d/e); test: as above
T10 peptide: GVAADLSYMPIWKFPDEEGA

[11] = target: T11, peptide 25 (FIGURE 3 d/e); test: as above
T11 peptide: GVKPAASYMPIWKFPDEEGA

[12] = target: T12, peptide 39 (FIGURE 3 d/e); test: as above
T12 peptide: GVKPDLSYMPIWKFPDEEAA

[13] = target: T13, peptide 32 (FIGURE 3 d/e); test: as above
T13 construct: marked WK under the bar
T13 peptide: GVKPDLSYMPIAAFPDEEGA

[14] = target: T14, peptide 35 (FIGURE 3 d/e); test: as above
T14 construct: marked PD under the bar
T14 peptide: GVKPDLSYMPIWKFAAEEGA

[15] = target: T15, peptide 26 (FIGURE 3 d/e); test: as above
T15 peptide: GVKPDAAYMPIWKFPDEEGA

[16] = target: T16, peptide 31 (FIGURE 3 d/e); test: as above
T16 construct: marked IW under the bar
T16 peptide: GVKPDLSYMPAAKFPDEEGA

[17] = target: T17, peptide 36 (FIGURE 3 d/e); test: as above
T17 construct: marked DE under the bar
T17 peptide: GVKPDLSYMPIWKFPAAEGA

[18] = target: T18, peptide 22 (FIGURE 3 d/e); test: as above
T18 peptide: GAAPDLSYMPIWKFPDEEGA

peptide 7 (FIGURE 3 d/e) = target: T19, peptide 7 (FIGURE 3 d/e); test: peptide array on cellulose membrane, truncation series, signal intensity (area under curve), duplicate spots
T19 peptide: SYMPIWKFPDEEGA

[19] = target: T20, peptide 14 (FIGURE 3 d/e); test: as above
T20 construct: also called FPDEEGA
T20 peptide: FPDEEGA

peptide 2 (FIGURE 3 d/e) = target: T21, peptide 2 (FIGURE 3 d/e); test: as above
T21 peptide: VKPDLSYMPIWKFPDEEGA

peptide 9 (FIGURE 3 d/e) = target: T22, peptide 9 (FIGURE 3 d/e); test: as above
T22 peptide: MPIWKFPDEEGA

[20] = target: T23, peptide 16 (FIGURE 3 d/e); test: as above
T23 construct: also called DEEGA
T23 peptide: DEEGA

peptide 8 (FIGURE 3 d/e) = target: T24, peptide 8 (FIGURE 3 d/e); test: as above
T24 peptide: YMPIWKFPDEEGA

[21] = target: T25, Peptide 13 of Table 4 (N-terminal truncation, tryptophan-614 lost); test: as above
T25 peptide: KFPDEEGA

binding result [1]: binds
binding result [2]: binds
binding result [3]: binds
binding result [4]: binds
binding result [5]: binds
binding result [6]: binds
binding result [7]: binds
binding result [8]: binds
binding result [9]: binds
binding result [10]: binds
binding result [11]: binds
binding result [12]: binds
binding result [13]: no binding
binding result [14]: binds
binding result [15]: binds
binding result [16]: no binding
binding result [17]: binds
binding result [18]: binds
binding result (peptide 7 (FIGURE 3 d/e)): binds
binding result [19]: no binding
binding result (peptide 2 (FIGURE 3 d/e)): binds
binding result (peptide 9 (FIGURE 3 d/e)): binds
binding result [20]: no binding
binding result (peptide 8 (FIGURE 3 d/e)): binds
binding result [21]: no binding
B1: Oslo-2 antibody (monoclonal antibody against p95HER2) (antibody, V domains shown)
VH: EVQILETGGGLVKPGGSLRLSCATSGFNFNDYFMNWVRQAPGKGLEWIAQIRNKNYNYATYFAESLEGRFTISRDDSKSSVYLQVNSLRAEDTALYYCTELRYDYWGQGVMVTVSS
VL: DIVMTQSPFSLAVSEGEMVTINCKSSQSLLSSGNQKNNLAWYQQKPGQSPKLLIYYASTRQSGVPDRFIGSGSGTDFTLTISDVQAEDLADYYCLQHYSSPYTFGAGTKLELK
notes: Monoclonal antibody from a rat hybridoma (mClone 1), detected with goat anti-rat-PE; also called the antibody of interest; the antibody
